For 1 molecule, Vmax of ATPase activity of the WT:D158N heterodimer mixture, ATP titration with CaCl2 (μM ATP min^−1/μM ATPase) and Vmax of ATPase activity of the WT:D158N heterodimer mixture, ATP titration with MgCl2 (μM ATP min^−1/μM ATPase) results are on record in publication PMC6120219.

Substitutions are numbered along the chain they refer to. Names may count otherwise.

The assay has as its target T1, human TRAP1 (TNF receptor-associated protein 1), full-length WT without mitochondrial signal sequence (human) (UniProt Q12931).
T1 sequence: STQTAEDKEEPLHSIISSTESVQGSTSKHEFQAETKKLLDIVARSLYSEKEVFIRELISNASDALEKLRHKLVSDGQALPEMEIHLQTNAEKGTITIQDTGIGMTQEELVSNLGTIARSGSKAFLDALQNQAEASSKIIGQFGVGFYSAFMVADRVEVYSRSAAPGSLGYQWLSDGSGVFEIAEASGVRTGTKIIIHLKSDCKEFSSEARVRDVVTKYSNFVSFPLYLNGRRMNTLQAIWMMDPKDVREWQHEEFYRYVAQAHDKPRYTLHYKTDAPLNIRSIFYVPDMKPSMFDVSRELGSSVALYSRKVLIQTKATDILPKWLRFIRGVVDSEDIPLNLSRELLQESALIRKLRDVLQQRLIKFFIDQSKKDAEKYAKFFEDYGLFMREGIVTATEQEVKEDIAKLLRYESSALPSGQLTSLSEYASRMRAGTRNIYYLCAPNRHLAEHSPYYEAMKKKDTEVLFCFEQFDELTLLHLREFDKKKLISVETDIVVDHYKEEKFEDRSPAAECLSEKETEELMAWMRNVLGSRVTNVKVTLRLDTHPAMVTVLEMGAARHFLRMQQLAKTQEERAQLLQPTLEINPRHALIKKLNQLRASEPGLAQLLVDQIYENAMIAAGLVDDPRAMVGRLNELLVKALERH

B1: human TRAP1 D158N point mutant (natural protein)
chain: T1 sequence with D99N
As for B1, the Vmax of ATPase activity of the WT:D158N heterodimer mixture, ATP titration with CaCl2 (μM ATP min^−1/μM ATPase) was found to be 2.31 and the Vmax of ATPase activity of the WT:D158N heterodimer mixture, ATP titration with MgCl2 (μM ATP min^−1/μM ATPase) worked out at 3.77.
